Reference: publication PMC4863622

Target: human Toll-like receptor 5, V5-tagged (hTLR5-V5) (human) (UniProt O60602)
UniProt O60602, sequence (O60602 21-858): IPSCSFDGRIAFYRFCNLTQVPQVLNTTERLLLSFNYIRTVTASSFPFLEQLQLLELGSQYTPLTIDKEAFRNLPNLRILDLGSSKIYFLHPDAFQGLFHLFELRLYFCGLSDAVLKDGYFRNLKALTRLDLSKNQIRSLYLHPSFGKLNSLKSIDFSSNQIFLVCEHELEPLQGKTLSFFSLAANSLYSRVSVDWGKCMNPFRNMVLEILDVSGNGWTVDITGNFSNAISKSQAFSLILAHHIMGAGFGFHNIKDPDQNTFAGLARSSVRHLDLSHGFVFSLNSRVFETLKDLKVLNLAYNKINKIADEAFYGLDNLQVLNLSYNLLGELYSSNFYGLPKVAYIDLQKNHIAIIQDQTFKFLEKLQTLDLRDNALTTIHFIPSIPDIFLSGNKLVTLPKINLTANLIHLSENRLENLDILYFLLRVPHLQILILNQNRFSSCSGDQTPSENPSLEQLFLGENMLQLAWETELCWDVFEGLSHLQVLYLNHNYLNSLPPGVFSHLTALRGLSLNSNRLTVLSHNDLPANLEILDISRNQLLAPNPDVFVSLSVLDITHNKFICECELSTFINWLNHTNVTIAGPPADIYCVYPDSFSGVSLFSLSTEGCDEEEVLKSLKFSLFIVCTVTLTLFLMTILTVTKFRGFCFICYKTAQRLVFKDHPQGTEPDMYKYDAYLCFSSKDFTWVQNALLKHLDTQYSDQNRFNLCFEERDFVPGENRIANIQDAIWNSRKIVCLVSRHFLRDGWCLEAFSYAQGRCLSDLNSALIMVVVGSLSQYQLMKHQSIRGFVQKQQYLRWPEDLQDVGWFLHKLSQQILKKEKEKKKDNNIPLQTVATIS

## Campylobacter jejuni FlaC, recombinant 6×His-FlaC–6×His (from UniProt P96747 1-249) (natural protein)
  IL-10 mRNA (quantitative RT-PCR) in hTLR5-transfected HEK293 cells, against the hTLR5 control (data not shown): 6 fold
